1 substance from article doi:10.1101/2023.04.03.535447 can be followed below.

The target in test [1] is ACE2 receptor (UniProt Q9BYF1). As to the kind of experiment: ELISA; competitive ELISA of ACE2 binding; Alhydrogel-adsorbed DCFHP incubated overnight at 4, 40 or 50 °C, compared with a reference sample adsorbed on the day of the assay. A general note: ELISA stands for enzyme-linked immunosorbent assay.
In test [2] the target is ACE2 receptor (UniProt Q9BYF1). As to the kind of experiment: ELISA; competitive ELISA of ACE2 binding; DCFHP 100% adsorbed to Alhydrogel (no phosphate), time zero against storage at 4 °C for 3-21 days (mean 10 days); read-out is the native antigen concentration against a reference, target 50 mcg/mL.

Chain of UniProt Q9BYF1 (Q9BYF1 18-805): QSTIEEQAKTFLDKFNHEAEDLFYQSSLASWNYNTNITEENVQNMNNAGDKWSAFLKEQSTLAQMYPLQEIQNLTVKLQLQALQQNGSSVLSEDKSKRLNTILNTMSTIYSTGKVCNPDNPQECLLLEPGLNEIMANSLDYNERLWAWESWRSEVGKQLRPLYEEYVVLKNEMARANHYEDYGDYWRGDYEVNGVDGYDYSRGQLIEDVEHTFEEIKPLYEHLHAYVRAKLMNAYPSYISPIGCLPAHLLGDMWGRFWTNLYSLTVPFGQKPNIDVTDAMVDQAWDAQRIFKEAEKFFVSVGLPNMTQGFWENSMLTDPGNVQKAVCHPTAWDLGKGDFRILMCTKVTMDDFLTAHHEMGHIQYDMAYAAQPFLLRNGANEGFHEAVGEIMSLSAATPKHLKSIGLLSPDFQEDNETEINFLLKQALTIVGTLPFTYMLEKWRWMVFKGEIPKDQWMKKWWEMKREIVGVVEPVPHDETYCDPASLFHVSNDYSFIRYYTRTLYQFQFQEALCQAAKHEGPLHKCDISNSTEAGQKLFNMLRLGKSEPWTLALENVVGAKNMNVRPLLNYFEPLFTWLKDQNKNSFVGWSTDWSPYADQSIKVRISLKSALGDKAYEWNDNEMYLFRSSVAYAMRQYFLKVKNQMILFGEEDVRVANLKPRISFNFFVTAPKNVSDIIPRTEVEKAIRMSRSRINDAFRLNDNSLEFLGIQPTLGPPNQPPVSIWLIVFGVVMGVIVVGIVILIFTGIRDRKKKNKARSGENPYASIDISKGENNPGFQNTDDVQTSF

On to “Delta-C70-Ferritin-HexaPro SARS-CoV-2 spike ferritin nanoparticle produced in Expi293 cells”, for which, in test [1], the loss of ACE2 binding after overnight incubation at 40°C (AH-adsorbed) was 60% and the loss of ACE2 binding after overnight incubation at 50°C (AH-adsorbed) worked out at 80%. Besides, in test [2], the native antigen concentration by ACE2 competitive ELISA, freshly adsorbed (time zero) is 48 µg/mL and the native antigen concentration by ACE2 competitive ELISA, stored at 4°C for 3-21 days came to 75 µg/mL.
